Source: US20220002431A1

Target: CD20 on Raji cells (CD20-positive human Burkitt's lymphoma cells) (human) (UniProt P11836)
Experiment: cell-based or functional assay

Chain of CD20 on Raji cells (CD20-positive human Burkitt's lymphoma cells) (human) (P11836 whole entry): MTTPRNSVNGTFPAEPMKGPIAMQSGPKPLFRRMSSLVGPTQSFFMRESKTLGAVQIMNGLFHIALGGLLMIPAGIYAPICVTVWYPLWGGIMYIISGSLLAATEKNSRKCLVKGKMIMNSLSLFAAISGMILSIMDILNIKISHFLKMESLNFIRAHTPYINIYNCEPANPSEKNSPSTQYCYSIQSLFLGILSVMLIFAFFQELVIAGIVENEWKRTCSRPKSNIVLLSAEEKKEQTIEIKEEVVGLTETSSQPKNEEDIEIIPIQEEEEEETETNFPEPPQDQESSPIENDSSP

isotype antibody (negative control)
EC50 for killing of Raji-luc cells by CIK effector cells, luciferase read-out: 230 ng/mL
